Experimental findings from IntAct's records for PubMed 26481812 are described below.

B1: C-type mannose receptor 2 (Homo sapiens), Q9UBG0 (parent)
chain: MGPGRPAPAPWPRHLLRCVLLLGCLHLGRPGAPGDAALPEPNVFLIFSHGLQGCLEAQGGQVRVTPACNTSLPAQRWKWVSRNRLFNLGTMQCLGTGWPGTNTTASLGMYECDREALNLRWHCRTLGDQLSLLLGARTSNISKPGTLERGDQTRSGQWRIYGSEEDLCALPYHEVYTIQGNSHGKPCTIPFKYDNQWFHGCTSTGREDGHLWCATTQDYGKDERWGFCPIKSNDCETFWDKDQLTDSCYQFNFQSTLSWREAWASCEQQGADLLSITEIHEQTYINGLLTGYSSTLWIGLNDLDTSGGWQWSDNSPLKYLNWESDQPDNPSEENCGVIRTESSGGWQNRDCSIALPYVCKKKPNATAEPTPPDRWANVKVECEPSWQPFQGHCYRLQAEKRSWQESKKACLRGGGDLVSIHSMAELEFITKQIKQEVEELWIGLNDLKLQMNFEWSDGSLVSFTHWHPFEPNNFRDSLEDCVTIWGPEGRWNDSPCNQSLPSICKKAGQLSQGAAEEDHGCRKGWTWHSPSCYWLGEDQVTYSEARRLCTDHGSQLVTITNRFEQAFVSSLIYNWEGEYFWTALQDLNSTGSFFWLSGDEVMYTHWNRDQPGYSRGGCVALATGSAMGLWEVKNCTSFRARYICRQSLGTPVTPELPGPDPTPSLTGSCPQGWASDTKLRYCYKVFSSERLQDKKSWVQAQGACQELGAQLLSLASYEEEHFVANMLNKIFGESEPEIHEQHWFWIGLNRRDPRGGQSWRWSDGVGFSYHNFDRSRHDDDDIRGCAVLDLASLQWVAMQCDTQLDWICKIPRGTDVREPDDSPQGRREWLRFQEAEYKFFEHHSTWAQAQRICTWFQAELTSVHSQAELDFLSHNLQKFSRAQEQHWWIGLHTSESDGRFRWTDGSIINFISWAPGKPRPVGKDKKCVYMTASREDWGDQRCLTALPYICKRSNVTKETQPPDLPTTALGGCPSDWIQFLNKCFQVQGQEPQSRVKWSEAQFSCEQQEAQLVTITNPLEQAFITASLPNVTFDLWIGLHASQRDFQWVEQEPLMYANWAPGEPSGPSPAPSGNKPTSCAVVLHSPSAHFTGRWDDRSCTEETHGFICQKGTDPSLSPSPAALPPAPGTELSYLNGTFRLLQKPLRWHDALLLCESRNASLAYVPDPYTQAFLTQAARGLRTPLWIGLAGEEGSRRYSWVSEEPLNYVGWQDGEPQQPGGCTYVDVDGAWRTTSCDTKLQGAVCGVSSGPPPPRRISYHGSCPQGLADSAWIPFREHCYSFHMELLLGHKEARQRCQRAGGAVLSILDEMENVFVWEHLQSYEGQSRGAWLGMNFNPKGGTLVWQDNTAVNYSNWGPPGLGPSMLSHNSCYWIQSNSGLWRPGACTNITMGVVCKLPRAEQSSFSPSALPENPAALVVVLMAVLLLLALLTAALILYRRRQSIERGAFEGARYSRSSSSPTEATEKNILVSDMEMNEQQE

This assay covers variants of B1. The following applies: with co1a1_rat Col1a1, P02454.
Sequence of co1a1_rat Col1a1, P02454 (P02454 whole entry): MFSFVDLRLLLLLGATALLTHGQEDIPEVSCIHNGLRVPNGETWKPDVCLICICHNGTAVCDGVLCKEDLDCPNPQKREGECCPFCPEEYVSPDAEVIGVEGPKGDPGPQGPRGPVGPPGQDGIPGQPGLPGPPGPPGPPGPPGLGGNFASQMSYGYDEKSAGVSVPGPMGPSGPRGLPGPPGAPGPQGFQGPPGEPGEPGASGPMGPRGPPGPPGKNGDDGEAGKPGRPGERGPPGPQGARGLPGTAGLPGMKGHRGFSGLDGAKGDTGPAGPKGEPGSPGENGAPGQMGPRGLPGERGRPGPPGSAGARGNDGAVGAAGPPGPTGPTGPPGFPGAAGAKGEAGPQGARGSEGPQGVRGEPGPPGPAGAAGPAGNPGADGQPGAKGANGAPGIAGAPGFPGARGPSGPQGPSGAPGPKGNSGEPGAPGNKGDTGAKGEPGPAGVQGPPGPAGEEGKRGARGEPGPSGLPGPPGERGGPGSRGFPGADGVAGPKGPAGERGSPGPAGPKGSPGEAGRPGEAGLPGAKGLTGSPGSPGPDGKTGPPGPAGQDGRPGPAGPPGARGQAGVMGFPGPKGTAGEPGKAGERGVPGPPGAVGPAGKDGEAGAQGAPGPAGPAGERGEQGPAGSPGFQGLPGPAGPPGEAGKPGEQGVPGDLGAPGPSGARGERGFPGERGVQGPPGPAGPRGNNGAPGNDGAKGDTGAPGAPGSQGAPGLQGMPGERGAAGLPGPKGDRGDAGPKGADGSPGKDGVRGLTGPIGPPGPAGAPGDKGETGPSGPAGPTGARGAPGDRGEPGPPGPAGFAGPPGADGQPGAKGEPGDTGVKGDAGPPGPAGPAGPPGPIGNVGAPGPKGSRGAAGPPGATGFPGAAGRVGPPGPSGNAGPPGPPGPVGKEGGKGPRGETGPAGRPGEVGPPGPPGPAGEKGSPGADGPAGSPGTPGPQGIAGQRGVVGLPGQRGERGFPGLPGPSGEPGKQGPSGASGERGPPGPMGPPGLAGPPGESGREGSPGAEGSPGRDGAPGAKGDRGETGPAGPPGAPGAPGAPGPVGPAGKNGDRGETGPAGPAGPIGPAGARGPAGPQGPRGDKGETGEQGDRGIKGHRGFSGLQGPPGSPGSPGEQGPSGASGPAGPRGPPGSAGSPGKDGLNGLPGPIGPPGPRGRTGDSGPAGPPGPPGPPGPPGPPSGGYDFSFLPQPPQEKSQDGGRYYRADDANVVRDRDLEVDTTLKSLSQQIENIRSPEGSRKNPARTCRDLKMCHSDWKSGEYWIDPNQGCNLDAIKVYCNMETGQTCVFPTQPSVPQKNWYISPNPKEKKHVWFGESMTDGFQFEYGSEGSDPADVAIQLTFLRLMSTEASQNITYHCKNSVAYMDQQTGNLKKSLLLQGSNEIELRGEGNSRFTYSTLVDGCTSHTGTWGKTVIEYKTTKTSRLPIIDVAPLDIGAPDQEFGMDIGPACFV
On to R206A;D208A, for which the “effect of a mutation on the interaction” value is “disrupting interaction strength”.
With Q179N;N181T, the “effect of a mutation on the interaction” value is given as “disrupting interaction strength”.
In the case of Y193A it was “disrupting interaction strength”.
In the case of Y292N;S294T it was “decreasing interaction strength”; in that of Y219A, “disrupting interaction strength”.
